For 37 variants, abundance fitness results are on record in the Human Domainome abundance scans (Beltran et al. 2025).

To fix the notation:
B1: Far upstream element-binding protein 1, residues 184 to 257; numbered along this chain, Q96AE4 (parent)
chain: GNAVQEIMIPASKAGLVIGKGGETIKQLQERAGVKMVMIQDGPQNTGADKPLRITGDPYKVQQAKEMVLELIRD

± gives the uncertainty stated by the source.

The variants in the series derive from B1. Nature of the series: abundance fitness (aPCA) (normalised: wild type 0, dead -1); higher = more abundant; growth selection in yeast, the domain comes from the species named. To be noted: Homo sapiens.
Take GNAVQEIMIPRSKAGLVIGKGGETIKQLQERAGVKMVMIQDGPQNTGADKPLRITGDPYKVQQAKEMVLELIRD [A11R]: the abundance fitness was -0.1 ± 0.027. The result for GNAVQEIMIPMSKAGLVIGKGGETIKQLQERAGVKMVMIQDGPQNTGADKPLRITGDPYKVQQAKEMVLELIRD [A11M] reads -0.094 ± 0.036.

GNAVQEIMIPESKAGLVIGKGGETIKQLQERAGVKMVMIQDGPQNTGADKPLRITGDPYKVQQAKEMVLELIRD [A11E]: the abundance fitness is -0.098 ± 0.035. Then GNAVQEIMIPLSKAGLVIGKGGETIKQLQERAGVKMVMIQDGPQNTGADKPLRITGDPYKVQQAKEMVLELIRD [A11L], with -0.092 ± 0.03; and GNAVQEIMIPGSKAGLVIGKGGETIKQLQERAGVKMVMIQDGPQNTGADKPLRITGDPYKVQQAKEMVLELIRD [A11G], with -0.098 ± 0.027. Then GNAVQEIMIPHSKAGLVIGKGGETIKQLQERAGVKMVMIQDGPQNTGADKPLRITGDPYKVQQAKEMVLELIRD [A11H], with -0.133 ± 0.052; and GNAVQEIMIPKSKAGLVIGKGGETIKQLQERAGVKMVMIQDGPQNTGADKPLRITGDPYKVQQAKEMVLELIRD [A11K], with -0.011 ± 0.037. As for GNAVQEIMIPQSKAGLVIGKGGETIKQLQERAGVKMVMIQDGPQNTGADKPLRITGDPYKVQQAKEMVLELIRD [A11Q], the abundance fitness was -0.078 ± 0.04. For the variant GNAVQEIMIPDSKAGLVIGKGGETIKQLQERAGVKMVMIQDGPQNTGADKPLRITGDPYKVQQAKEMVLELIRD [A11D], the abundance fitness is -0.014 ± 0.045. With GNAVQEIMIPVSKAGLVIGKGGETIKQLQERAGVKMVMIQDGPQNTGADKPLRITGDPYKVQQAKEMVLELIRD [A11V], the abundance fitness is -0.071 ± 0.03. Take GNAVQEIMIPCSKAGLVIGKGGETIKQLQERAGVKMVMIQDGPQNTGADKPLRITGDPYKVQQAKEMVLELIRD [A11C]: the abundance fitness is -0.034 ± 0.043. The result for GNAVQEIMIPFSKAGLVIGKGGETIKQLQERAGVKMVMIQDGPQNTGADKPLRITGDPYKVQQAKEMVLELIRD [A11F] reads -0.13 ± 0.046. Then GNAVQEIMIPISKAGLVIGKGGETIKQLQERAGVKMVMIQDGPQNTGADKPLRITGDPYKVQQAKEMVLELIRD [A11I], with -0.096 ± 0.056.

GNAVQEIMIPWSKAGLVIGKGGETIKQLQERAGVKMVMIQDGPQNTGADKPLRITGDPYKVQQAKEMVLELIRD [A11W]: the abundance fitness was -0.17 ± 0.033.

For GNAVQEIMIPNSKAGLVIGKGGETIKQLQERAGVKMVMIQDGPQNTGADKPLRITGDPYKVQQAKEMVLELIRD [A11N], the abundance fitness was determined as 0.021 ± 0.046. Then GNAVQEIMIPYSKAGLVIGKGGETIKQLQERAGVKMVMIQDGPQNTGADKPLRITGDPYKVQQAKEMVLELIRD [A11Y], with -0.089 ± 0.053. The result for GNAVQEIMIPTSKAGLVIGKGGETIKQLQERAGVKMVMIQDGPQNTGADKPLRITGDPYKVQQAKEMVLELIRD [A11T] reads -0.08 ± 0.035. Turning to GNAVQEYMIPASKAGLVIGKGGETIKQLQERAGVKMVMIQDGPQNTGADKPLRITGDPYKVQQAKEMVLELIRD [I7Y], the abundance fitness was -0.597 ± 0.058. GNAVQEIMIGASKAGLVIGKGGETIKQLQERAGVKMVMIQDGPQNTGADKPLRITGDPYKVQQAKEMVLELIRD [P10G]: the abundance fitness was -0.557 ± 0.031. With GNAVQEIMIVASKAGLVIGKGGETIKQLQERAGVKMVMIQDGPQNTGADKPLRITGDPYKVQQAKEMVLELIRD [P10V], the abundance fitness was -0.946 ± 0.047. As to GNAVQEIMIKASKAGLVIGKGGETIKQLQERAGVKMVMIQDGPQNTGADKPLRITGDPYKVQQAKEMVLELIRD [P10K], the abundance fitness is -0.287 ± 0.04. As to GNAVQEIMIDASKAGLVIGKGGETIKQLQERAGVKMVMIQDGPQNTGADKPLRITGDPYKVQQAKEMVLELIRD [P10D], the abundance fitness was -0.355 ± 0.045. Turning to GNAVQEIMIQASKAGLVIGKGGETIKQLQERAGVKMVMIQDGPQNTGADKPLRITGDPYKVQQAKEMVLELIRD [P10Q], the abundance fitness was -0.391 ± 0.044. Then GNAVQEIMIMASKAGLVIGKGGETIKQLQERAGVKMVMIQDGPQNTGADKPLRITGDPYKVQQAKEMVLELIRD [P10M], with -0.678 ± 0.05; and GNAVQEIMIWASKAGLVIGKGGETIKQLQERAGVKMVMIQDGPQNTGADKPLRITGDPYKVQQAKEMVLELIRD [P10W], with -1.22 ± 0.082. Turning to GNAVQEIMIEASKAGLVIGKGGETIKQLQERAGVKMVMIQDGPQNTGADKPLRITGDPYKVQQAKEMVLELIRD [P10E], the abundance fitness was -0.364 ± 0.038. Then GNAVQEIMIFASKAGLVIGKGGETIKQLQERAGVKMVMIQDGPQNTGADKPLRITGDPYKVQQAKEMVLELIRD [P10F], with -1.13 ± 0.13.

For GNAVQEIMIRASKAGLVIGKGGETIKQLQERAGVKMVMIQDGPQNTGADKPLRITGDPYKVQQAKEMVLELIRD [P10R], the abundance fitness was -0.513 ± 0.03. GNAVQEIMICASKAGLVIGKGGETIKQLQERAGVKMVMIQDGPQNTGADKPLRITGDPYKVQQAKEMVLELIRD [P10C]: the abundance fitness is -0.598 ± 0.053. For GNAVQEIMILASKAGLVIGKGGETIKQLQERAGVKMVMIQDGPQNTGADKPLRITGDPYKVQQAKEMVLELIRD [P10L], the abundance fitness was -0.922 ± 0.049. The result for GNAVQEIMISASKAGLVIGKGGETIKQLQERAGVKMVMIQDGPQNTGADKPLRITGDPYKVQQAKEMVLELIRD [P10S] reads -0.367 ± 0.036. Then GNAVQEIMIYASKAGLVIGKGGETIKQLQERAGVKMVMIQDGPQNTGADKPLRITGDPYKVQQAKEMVLELIRD [P10Y], with -1.03 ± 0.12; and GNAVQEIMITASKAGLVIGKGGETIKQLQERAGVKMVMIQDGPQNTGADKPLRITGDPYKVQQAKEMVLELIRD [P10T], with -0.456 ± 0.042. Regarding GNAVQEIMINASKAGLVIGKGGETIKQLQERAGVKMVMIQDGPQNTGADKPLRITGDPYKVQQAKEMVLELIRD [P10N], the abundance fitness was -0.299 ± 0.054. Consider GNAVQEIMIIASKAGLVIGKGGETIKQLQERAGVKMVMIQDGPQNTGADKPLRITGDPYKVQQAKEMVLELIRD [P10I], for which the abundance fitness is -0.903 ± 0.084. Then GNAVQEIMIAASKAGLVIGKGGETIKQLQERAGVKMVMIQDGPQNTGADKPLRITGDPYKVQQAKEMVLELIRD [P10A], with -0.468 ± 0.035; and GNAVQEIMIHASKAGLVIGKGGETIKQLQERAGVKMVMIQDGPQNTGADKPLRITGDPYKVQQAKEMVLELIRD [P10H], with -0.398 ± 0.052.
